According to patent publication US20210079071A1:

Assays:
[1] = target: T1, Staphylocoagulase peptide SC(1-10), …, unconjugated (Staphylococcus aureus); test: ELISA: purified GMA-2105 on unconjugated …, A490
[2] = target: Staphylocoagulase peptide SC(1-10) conjugated to ovalbumin (Staphylococcus aureus); test: ELISA: purified GMA-2105 on SC peptide-ovalbumin conjugate, A490
[3] = target: T1, Staphylocoagulase peptide SC(1-10), …, …; test: ELISA: GMA-2105 F(ab) on wells coated with …, A490
[4] = target: GMA-2105 murine anti-staphylocoagulase monoclonal antibody

B1: GMA-2105 murine anti-staphylocoagulase monoclonal antibody (antibody, V domains shown)
VH: EVKLEESGGGLVQPGGSMKLSCAASGFTFSDAWMDWVRQSPEKGLEWVAEIRTKANNHATYYAESVKGRFTISRDDSKSSVYLQMNSLRAEDTGIYYCTNVYYGNNDVKDYWGQGTSVTVSPAS
VL: DIVMTQSQKFMSTSVGDRVSVTCKASQNVDIYVAWYQQKPGQSPKALIYSASYRFSGVPDRFTGSGSGTDFTLSISNVQSEDLAEYFCQQYNNYPYTFGGGTKLEIKRADAAPTVSIFPPSSEGRI
Question: How did the EC50 (read off the curve) [1] turn out when B1 was run?
Answer: 0.05 µg/mL

Question: And the EC50 (read off the curve) [2]?
Answer: 0.03 µg/mL

B2: GMA-2105 F(ab) fragment (Fab, V domains shown)
VH: EVKLEESGGGLVQPGGSMKLSCAASGFTFSDAWMDWVRQSPEKGLEWVAEIRTKANNHATYYAESVKGRFTISRDDSKSSVYLQMNSLRAEDTGIYYCTNVYYGNNDVKDYWGQGTSVTVSPAS
VL: DIVMTQSQKFMSTSVGDRVSVTCKASQNVDIYVAWYQQKPGQSPKALIYSASYRFSGVPDRFTGSGSGTDFTLSISNVQSEDLAEYFCQQYNNYPYTFGGGTKLEIKRADAAPTVSIFPPSSEGRI
Question: For B2, which EC50 (read off the curve) [3] is on record?
Answer: 0.1 µg/mL

Question: IVTKDYSKES (modifications not checked) [Staphylocoagulase peptide SC(1-10), …, unconjugated] was tested. Which IC50 (read off the curve) [4] did it give?
Answer: 2 nM
